Experimental data: US20220259268A1 (NATIONAL UNIVERSITY CORPORATION TOKAI NATIONAL HIGHER …, published 2022)

Target: the molecule itself
Experiment: dynamic light scattering of liposomes carrying Nhead-SNAP on the surface layer

B1: Nhead-SNAP fusion peptide (AtaA59-325-GCN4pII-SNAP-His) (other)
chain: not shown
notes: also called E. coli recombinant Nhead-SNAP
B1: no binding.
